Reference: paper PMC4359371, “Analysis of the crystal structure of an active MCM hexamer” (eLife, 2014)

Legend:
[1] = biological target: the molecule itself; assay: crystal structure; PfMCMAAA with Mg/ADP, hanging drop, 50 mM sodium cacodylate pH 6.0, 50 mM magnesium acetate, 30% MPD, 5% glycerol; space group P1, 16 monomers in the asymmetric unit; 3.80 Å
[2] = biological target: the molecule itself; assay: crystal structure; Sso-PfMCM with Mg/ADP, hanging drop, 100 mM HEPES pH 7.6, 350 mM MgCl2, 3% PEG 3350; space group P6_(3), hexamer on a crystallographic threefold axis; 2.70 Å

B1: Pyrococcus furiosus MCM AAA+ ATPase domain, crystallized construct (aa 263-361/729-966) (domain or fragment, UniProt Q8U3I4 263-966, looked up)
chain: PEEEQIIKELAKRKDIVDAIVDSIAPAIYGYKEVKKGIALALFGGVSRKLPDGTRLRGDIHVLLVGDPGVAKSQILRYVANLAPRAIYTSGKSSSAAGLTAAAVRDEFTGGWVLEAGALVLADGGYALIDELDKMSDRDRSVIHEALEQQTISISKAGITATLNARTTVIAAANPKQGRFNRMKNPFEQIDLPPTLLSRFDLIFVLIDEPDDKIDSEVARHILRVRRGESEVVAPKIPHEILRKYIAYARKNIHPVISEEAMEEIEKYYVRMRKSVKKTKGEEEGIPPIPITARQLEALIRLSEAHARMRLSPIVTREDAREAIKLMEYTLKQIAMD
notes: PfMCM AAA+ domain, Pyrococcus furiosus MCM, aa 263-361/729-966 (intein aa 362-728 genetically removed); amplified from P. furiosus genomic DNA (ATCC); numbers are database (intein-containing) numbers; A different construct (aa 252-361/729-1049) was used for the unwinding experiments and is not this molecule; also called PfMCMAAA; PfMCM-AAA; not shown: His6, N-terminal, cleaved; SUMO, N-terminal, …
- stoichiometry N [1]: 16

B2: Sso-PfMCM chimera (Sulfolobus solfataricus MCM N-terminal domain fused to Pyrococcus furiosus MCM AAA+ ATPase domain) (enzyme, UniProt Q9UXG1 1-269, looked up)
chain: MEIPSKQIDYRDVFIEFLTTFKGNNNQNKYIERINELVAYRKKSLIIEFSDVLSFNENLAYEIINNTKIILPILEGALYDHILQLDPTYQRDIEKVHVRIVGIPRVIELRKIRSTDIGKLITIDGILVKVTPVKERIYKATYKHIHPDCMQEFEWPEDEEMPEVLEMPTICPKCGKPGQFRLIPEKTKLIDWQKAVIQERPEEVPSGQLPRQLEIILEDDLVDSARPGDRVKVTGILDIKQDSPVKRGSRAVFDIYMKVSSIEVSQKVLQELEISPEEEQIIKELAKRKDIVDAIVDSIAPAIYGYKEVKKGIALALFGGVSRKLPDGTRLRGDIHVLLVGDPGVAKSQILRYVANLAPRAIYTSGKSSSAAGLTAAAVRDEFTGGWVLEAGALVLADGGYALIDELDKMSDRDRSVIHEALEQQTISISKAGITATLNARTTVIAAANPKQGRFNRMKNPFEQIDLPPTLLSRFDLIFVLIDEPDDKIDSEVARHILRVRRGESEVVAPKIPHEILRKYIAYARKNIHPVISEEAMEEIEKYYVRMRKSVKKTKGEEEGIPPIPITARQLEALIRLSEAHARMRLSPIVTREDAREAIKLMEYTLKQIAMD
notes: SsoMCM N-terminal domain (SsoMCMN), Sulfolobus solfataricus MCM, aa 1-269; amplified from S. solfataricus genomic DNA (ATCC); PfMCM AAA+ domain (PfMCMAAA), Pyrococcus furiosus MCM, aa 257-361/729-966 = aa 257-966 with its intein (aa 362-728) genetically removed; lacks the C-terminal helix-turn-helix domain (aa 967-1049); numbers are database (intein-containing) numbers; Crystallised with Mg/ADP; …
- stoichiometry N [2]: 6
